Results reported in US20220074937A1 (BIOSWAN LABORATORIES, published 2022).

How the values were obtained:
[1] = biological target: T1, CD19 CAR containing FMC63 scFv, on the cell surface (CD19 CAR-T cells, CD19 CAR-293T cells); assay: flow cytometry (MFI) on CD19 CAR-293T cells, R19mab titrated; printed beside EC50 = 1.58 nM, which the text gives
T1 construct: Chimeric antigen receptor brought into T cells or 293T cells by lentivirus; also called FMC63 scFv CD19 CAR; CD19 CAR scFv on the cell surface; not shown: hinge, transmembrane and intracellular signalling regions of the CAR
T1 sequence (chain, as listed by the source): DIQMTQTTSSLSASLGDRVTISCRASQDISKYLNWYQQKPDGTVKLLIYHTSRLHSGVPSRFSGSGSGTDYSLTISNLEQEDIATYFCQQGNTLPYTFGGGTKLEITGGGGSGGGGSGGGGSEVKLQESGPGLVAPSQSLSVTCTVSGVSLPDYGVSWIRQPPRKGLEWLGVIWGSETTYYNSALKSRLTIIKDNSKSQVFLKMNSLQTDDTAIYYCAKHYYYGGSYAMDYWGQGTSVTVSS
Experimental: (§1) T cells were infected with CD19 CAR lentivirus or BCMA CAR lentivirus to obtain corresponding CAR-T cells. […] 2×10⁵ cells were suspended in 50 μL FACS buffer. 50 μL antibody solution was then added to 50 μL cell suspension and the mixture was incubated on ice for 30 minutes. The cells were then washed twice with cold FACS buffer. […] Table 1) and the mixture was incubated on ice for 30 minutes, after that the cells were washed twice with cold FACS buffer. The cells were resuspended in 200 μL FACS buffer and detected by flow cytometry.
(§2) CD19 CAR-293T cells were obtained by infecting 293T cells with CD19 CAR lentivirus. […] 2×10⁵ CD19 CAR-293T cells were suspended in 50 μL FACS buffer.

[2] = biological target: T1, CD19 CAR containing FMC63 scFv, on the …; assay: flow cytometry on CD19 CAR-293T cells
Experimental: as §1, §2

[3] = biological target: T2, FMC63 scFv-His tag recombinant protein; assay: ELISA, FMC63 scFv coated
T2 construct: Expressed in 293T cells, purified on Ni-NTA; also called FMC63 scFv recombinant protein; CD19 CAR scFv recombinant protein
T2 sequence (scFv, as listed by the source): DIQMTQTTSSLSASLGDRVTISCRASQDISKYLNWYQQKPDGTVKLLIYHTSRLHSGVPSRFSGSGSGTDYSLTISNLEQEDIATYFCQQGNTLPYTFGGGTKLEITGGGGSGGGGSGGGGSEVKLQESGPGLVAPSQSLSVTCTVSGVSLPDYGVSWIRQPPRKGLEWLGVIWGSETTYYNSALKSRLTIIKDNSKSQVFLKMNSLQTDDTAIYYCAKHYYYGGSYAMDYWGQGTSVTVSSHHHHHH
Experimental: (§3) Blocking was then performed with PBST (PBS containing 0.05% Tween 20) containing 5% BSA at 300 μL per well. […] The plate was washed with PBST and then incubated at room temperature for 30 minutes with goat anti-rabbit IgG polyclonal antibody coupled with horseradish peroxidase (HRP).

[4] = biological target: T3, FMC63 antibody (murine anti-CD19 monoclonal antibody, Merck & Millipore MAB1794); assay: ELISA, FMC63 antibody coated
T3 construct: Whole mouse monoclonal antibody coated on the ELISA plate; also called CD19 antibody
Experimental: as §3

[5] = biological target: T2, FMC63 scFv-His tag recombinant protein; assay: BLI (Fortebio Octet), FMC63 scFv on the sensor, R19mab 15.6-0.975 nM, 1:1 model
Text: (§4) In short, the biosensor was balanced offline in PBS buffer for 600 seconds, and then detected online for 60 seconds to establish a baseline. […] Data Analysis 6.2 evaluation software was used to analyze the data, and a 1:1 combination model was used for kinetic analysis.

[6] = biological target: T2, FMC63 scFv-His tag recombinant protein; assay: BLI (Fortebio Octet), FMC63 scFv loaded on the sensor, R19mab at 15.6, 7.8, 3.9, 1.95 and 0.975 nM, 1:1 model; the same value stands in rows 1 to 5 of the drawn table (column Kd (M)); the text rounds it to 43 pM
Text: as §4

B1: rabbit monoclonal antibody R19mab against FMC63 scFv (antibody, V domains shown)
VH: QSLEESGGRLVTPGTPLTLTCTVSGIDFRNYGVSWVRQAPGKGLEWIGIFSSSGSTYYATWAKGRFTISKASSTTVDLKMTSLTTEDTATYFCARHPGPTNGWKLWGPGTLVTVSS
VL: DVVMTQTPASVEAPVGGTVTIKCQASQSVSGYCSWYQQKPGQPPKLLIYRASTLESGVPSRFSGSGSGTDFTLTISDLECADAATYYCQSNYNSGSSSSAAAFGGGTEVVVK
notes: Rabbit monoclonal IgG, expressed in 293T cells and purified on Protein A; also called No.0231 (rabbit B cell clone)
- EC50 [1]: 0.237 µg/mL
- EC50 [2]: 1.58 nM
- EC50 [3]: 0.307 nM
- EC50 [4]: 0.253 nM
- Kd [5]: 0.043 nM
- Kd [6]: 0.0431 nM
